Data as given in article PMC3542428, “Functional Insights from the Crystal Structure of the N-Terminal Domain of the Prototypical Toll Receptor” (Structure(London, England:1993), 2013).

Tests used:
[1] = molecular target: Toll (Drosophila melanogaster) (UniProt P08953); details: cited from earlier work
[2] = molecular target: TollN6-VLR (hybrid of Toll residues 28-228 and variable lymphocyte receptor B.61 residues 133-201) (Drosophila melanogaster | hagfish) (UniProt P08953); assay: dynamic light scattering; 100 mM NaCl, 50 mM Tris-HCl pH 7.0, about 200 μg/ml; Z-average diameter 12.7 nm, polydispersion index about 0.1
[3] = molecular target: single and double mutations of Cys 34, Cys 43 and Cys 45 in the Toll-TLR4 chimera
[4] = molecular target: T1, full-length Toll ECD (extracellular domain of Drosophila melanogaster Toll) (Drosophila melanogaster, UniProt P08953 28-807); assay: SEC; data not shown; same preparation of C-106 with full-length Toll ECD, complexes elute as 280 kDa species; details: both partners purified
T1 construct: Toll, Drosophila melanogaster, UniProt P08953, full-length extracellular domain; Also used as the target of the functional row on endogenous Toll of S2 cells (no molecule of its own was made for the whole receptor); also called full-length ECD; full-length ectodomain
T1 sequence (looked up): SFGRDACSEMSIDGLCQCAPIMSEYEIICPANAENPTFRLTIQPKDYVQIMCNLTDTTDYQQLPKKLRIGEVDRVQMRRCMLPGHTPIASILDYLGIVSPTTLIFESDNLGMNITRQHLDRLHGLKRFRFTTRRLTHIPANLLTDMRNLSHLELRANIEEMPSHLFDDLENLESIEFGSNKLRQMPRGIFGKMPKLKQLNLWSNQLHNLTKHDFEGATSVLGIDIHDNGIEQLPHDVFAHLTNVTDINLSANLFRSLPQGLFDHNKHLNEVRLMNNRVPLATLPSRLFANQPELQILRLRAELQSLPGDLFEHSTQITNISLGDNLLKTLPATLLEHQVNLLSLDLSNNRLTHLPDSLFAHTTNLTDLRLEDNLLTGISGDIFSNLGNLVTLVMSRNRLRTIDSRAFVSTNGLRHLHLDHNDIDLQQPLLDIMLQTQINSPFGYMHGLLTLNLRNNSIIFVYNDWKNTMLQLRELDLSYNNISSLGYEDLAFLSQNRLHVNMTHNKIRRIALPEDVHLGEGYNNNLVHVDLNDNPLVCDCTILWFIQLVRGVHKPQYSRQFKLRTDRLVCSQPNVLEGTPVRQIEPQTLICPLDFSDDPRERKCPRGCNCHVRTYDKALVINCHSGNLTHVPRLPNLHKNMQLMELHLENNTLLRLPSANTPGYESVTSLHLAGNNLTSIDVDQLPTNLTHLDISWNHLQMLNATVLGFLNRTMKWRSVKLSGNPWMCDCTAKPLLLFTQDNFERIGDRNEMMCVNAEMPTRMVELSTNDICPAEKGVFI

[5] = molecular target: T2, TollN13-VLR (Toll N-terminal region up to LRR13 fused to VLR B.61 residues 133-201) (Drosophila melanogaster | hagfish, UniProt P08953 28-397; Q4G1L2 133-201); assay: SEC; gel filtration of the Toll-VLR constructs alone and mixed with Spz C-106 (TollN6-VLR and C-106 in equimolar concentrations); details: both partners purified
T2 construct: Toll, Drosophila melanogaster, UniProt P08953, residues 28-397 (first 13 LRRs); cloned as residues 1-397 with its own signal peptide; the results say 'up to Leu 398 in LRR13'; variable lymphocyte receptor (VLR) B.61 of hagfish, residues Asn 133-Thr 201 (LRRCT cap); C-terminal limit of the Toll part is printed as 397 (methods, discussion) and as Leu 398 (results); also called larger Toll …
T2 chain (looked up): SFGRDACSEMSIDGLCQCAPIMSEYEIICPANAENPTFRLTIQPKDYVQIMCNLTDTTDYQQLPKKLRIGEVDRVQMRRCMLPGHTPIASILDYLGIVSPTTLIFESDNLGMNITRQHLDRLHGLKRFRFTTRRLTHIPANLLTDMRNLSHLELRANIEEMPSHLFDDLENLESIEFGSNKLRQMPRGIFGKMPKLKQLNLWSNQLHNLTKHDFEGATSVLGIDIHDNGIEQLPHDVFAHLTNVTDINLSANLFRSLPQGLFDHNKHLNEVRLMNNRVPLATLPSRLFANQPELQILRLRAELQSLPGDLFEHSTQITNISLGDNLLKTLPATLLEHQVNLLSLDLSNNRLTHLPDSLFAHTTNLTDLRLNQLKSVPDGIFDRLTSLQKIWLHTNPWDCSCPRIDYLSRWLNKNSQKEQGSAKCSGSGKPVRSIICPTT

Q: With Toll (from UniProt P08953) as the molecule, how does the Kd [1] read?
A: The Kd was 2000 nM.

Q: For “TollN6-VLR (hybrid of Toll residues 28-228 and variable lymphocyte receptor B.61 residues 133-201) (from UniProt P08953 28-228; Q4G1L2 133-201) (domain or fragment)”, which stoichiometry N [2] is on record?
A: Its stoichiometry N is 4.

B1: Spätzle C-106 (C-terminal active fragment of 106 amino acids of processed Spätzle) (ligand, Drosophila melanogaster, UniProt P48607 221-326, looked up)
chain: VGGSDERFLCRSIRKLVYPKKGLRADDTWQLIVNNDEYKQAIQIEECEGADQPCDFAANFPQSYNPICKQHYTQQTLASIKSDGELDVVQNSFKIPSCCKCALKTG
notes: Spätzle (Spz), Drosophila melanogaster; also called cleaved Spz; source: baculovirus expression system, His-tagged Spätzle, purified
Q: For B1, which NF-κB luciferase reporter in HEK293ET cells transfected with the Toll-TLR4 chimera, 24 hr after Spz stimulation at 10 nM; decrease of the signal against the wild-type chimera [3] is on record?
A: Its NF-κB luciferase reporter in HEK293ET cells transfected with the Toll-TLR4 chimera, 24 hr after Spz stimulation at 10 nM; decrease of the signal against the wild-type chimera is 10 % decrease.

Q: And the “stoichiometry N” value [4]?
A: The value was 1 ratio (2:2 as printed).

Q: And the “stoichiometry N” value [5]?
A: The value was 1 ratio (1:1 as printed).
